The source of these data is paper PMC4624198.

This test concerns the target T1, HTP-3 (G490K, G728K), Strep-tagged (C. elegans), O01820.
T1 chain: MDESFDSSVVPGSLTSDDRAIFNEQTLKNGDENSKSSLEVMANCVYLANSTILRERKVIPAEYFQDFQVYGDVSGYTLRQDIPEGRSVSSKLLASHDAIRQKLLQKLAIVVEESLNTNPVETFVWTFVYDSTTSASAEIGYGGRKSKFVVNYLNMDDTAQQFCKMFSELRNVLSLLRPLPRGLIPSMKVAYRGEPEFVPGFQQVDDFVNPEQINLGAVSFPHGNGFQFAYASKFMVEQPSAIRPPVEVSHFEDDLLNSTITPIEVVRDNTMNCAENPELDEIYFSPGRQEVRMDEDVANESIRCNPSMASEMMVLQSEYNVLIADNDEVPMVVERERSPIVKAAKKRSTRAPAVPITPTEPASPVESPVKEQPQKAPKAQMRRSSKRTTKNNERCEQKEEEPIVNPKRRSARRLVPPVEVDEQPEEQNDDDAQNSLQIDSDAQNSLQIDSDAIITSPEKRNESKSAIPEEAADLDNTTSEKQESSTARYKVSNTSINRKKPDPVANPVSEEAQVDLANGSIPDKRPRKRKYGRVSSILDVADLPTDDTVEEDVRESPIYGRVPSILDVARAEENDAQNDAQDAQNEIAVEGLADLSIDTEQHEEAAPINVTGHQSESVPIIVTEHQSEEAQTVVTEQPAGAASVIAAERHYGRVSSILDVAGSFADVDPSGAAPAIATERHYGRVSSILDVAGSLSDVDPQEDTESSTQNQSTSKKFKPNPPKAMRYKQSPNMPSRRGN
Nature of the test: pull-down. The settings on record: remark: other sources report otherwise.

B1: HTP-1, untagged, Q20305 1-352 (natural protein)
chain: MAPLETIYDESLNKSADSIDDKKWSKLFPRIVSDPDRSSNFMTRAIYVAFSAVLRNRNILGQEYFTKNYITEKLKCMTLCFRNPRSNQIAQLLRNAGDATKDGFLKEVSLVITNNEGDLEAIEVFSMKFIYFENGGVVARLSTDKNGQEDPHFAKLAQLVYEGGDSVRDQMVTIVRSVQFLCTKVLEPLPEEFTANFRLEYTNDAPSNFRIDGFEDSSTFYTLPDDIQSATIGHLRPGCHAANMECWSMLMSDSYEAELTLKRHLDKVSDRHGFNPVNVLYKSFNSEDSDTSLSQATTESVNDQGGNETSPVDDITESLEKAQMSPIQTRPTTRRGADGSKTRSSPYSRSCK
B1 had an HTP-1 bound, percent of the amount bound to the wild-type complex of 10%.
